# From article PMC8087942, “Full closed loop open‐source algorithm performance comparison in pigs with diabetes” (Clinical and Translational Medicine, 2021)
# Experiment: Insulin lispro pharmacokinetics after subcutaneous Humalog in fasted pigs with diabetes (plasma lispro by ELISA)
# Assay type: in vivo, pig
# Settings: pilot study, pigs with diabetes (n = 6), fasted 4–6 h, 4 U Humalog (100 U/ml) subcutaneous, plasma lispro by Insulin Lispro ELISA (Mercodia)
# Experimental: Insulin pharmacokinetics are more rapid in pigs than in humans. ^19 , ^20 , ^29 Thus, it was necessary to construct models for insulin action to be used in both open‐source systems, which model insulin action as an exponential curve. In AndroidAPS, the parameters defining the curve are time‐to‐peak action (TPA) and total duration of insulin action (DIA). ^23 Loop uses time‐to‐onset, TPA, and DIA. ^15 The pig pharmacokinetic curves for use in open‐source algorithms were determined from data obtained during a pilot study in pigs (n = 6). This experimental pharmacokinetic curve is consistent with pharmacokinetics observed in the pigs used in this study. ^20 Pigs were kept on fast 4–6 h and then injected subcutaneously with a 4 U dose of Humalog (100 U/ml, Eli Lilly). Before injection, baseline blood was sampled from an intravenous catheter line and measured using a handheld glucose monitor (Bayer Contour Next). After injection, blood was sampled from the intravenous catheter line every 5 min for the first 60 min, then every 30 min up to 4 h. Blood was collected in K2EDTA plasma tubes (Greiner‐BioOne) for analysis with ELISA. Plasma lispro concentrations were quantified using an Insulin Lispro ELISA kit (Mercodia). Pharmacodynamics were approximated by blood glucose measurements in a stable fasting state after 2–3 h (Figure 2A). […]
substance,measurement,setting,value
"Humalog: Commercial rapid-acting insulin lispro formulation (100 U/ml, Eli Lilly) injected subcutaneously in pigs",near complete exposure duration,,~2 h
same,time of peak serum concentrations,"sampled every 5 min for 60 min, then every 30 min up to 4 h",20 to 25 min
